Measured values from patent US11499162B2, “Plants having increased tolerance to herbicides” (BASF SE, priority 2016, dated 2022).

Assay type: biochemical
Details: pH 7.2
Protocol: EXAMPLE 3: Protein Purification. TriA and variants thereof were produced in E. coli BL21(DE3) Gold (Agilent Technologies, Germany). Therefore E. coli was transformed with appropriate pET24d N-HIS tag expression vector and chaperone plasmid pGro7 (chaperones groEL and groES). Bacterial strains were grown at 30° C. in 100 mL LB for 20 h and protein expression induced with 0.1 mM IPTG at 25° C. for 20 hs. Cells were harvested by centrifugation at 3000 rpm at 4° C. for 20 min, resuspended in Bug Buster protein extraction reagent (Novagen, Germany) according to manufactures instructions. Lysates were clarified by centrifugation. Samples of bovine serum albumin ([…]) were loaded onto each gel analyzed by densitometry to provide an internal standard. Protein determinations were verified using Coomassie protein assay dye, according to manufactures instruction (Thermo Scientific; USA). The HIS-tagged enzymes were purified by metal ion affinity chromatography using Ni-IDA 1000 kit (Macherey-Nagel, Germany) following manufactures instructions. Protein purity was accessed by SDS-PAGE using NuPAGE Novex 4-12% Bis-Tris pre-cast gels (Life Technologies; USA) stained with Coomassie Brilliant Blue (Serva, Germany). Protein concentrations were estimated by measuring absorbance at 280 nm using Lambda Bio+(Perkin Elmer, USA). EXAMPLE 4: Enzyme kinetics. Resting cell suspension containing triA gene were incubated with various azines, melamine and atrazine and the culture filtrate was analyzed by UPLC-HR-MS. Substrates were obtained either from Sigma-Aldrich or synthesized internally. Synthetic standards and enzyme reaction products were analysed by UPLC-HR-MS (Thermo/Dionex UPLC UltiMate3000 coupled to a QExactive high resolution mass spectrometer). A Waters Acquity HSS T3 column (2.1 mm; 100 mm; […]) was used with a mobile phase water/acetonitrile (0.1% formic acid) with a flow rate of […]. Enzymes were used solved 25 mM sodium phosphate buffer (pH 7.2) with substrate concentration in the range of 1 nM to 10 nM at 30° C. Over time, the original azine peak disappeared whereas the formed OH-Metabolite (reaction product) increased. The product was identified by determination of the exact formula and by analysis of the accurate MS-MS fragments. Moreover for some of the formed products authentic standards were co-eluted. Degradation in % was calculated against the cells harboring the empty vector as control.

Molecule | Degradation in % of 6-cyclopentyl-N4-(2,3,4,5,6-pentafluorophenyl)-1,3,5-triazine-2,4-diamine [%] | Degradation in % of Melamine [%]
D248EE251D: mutated TriA variant of SEQ ID NO: 2 (protein, Pseudomonas) MQTLSIQHGTLVTMDQYRRVLGDSWVHVQDGRIVALGVHAESVPPPADRVIDARGKVVLPGFINAHTHVNQILLRGGPSHGRQLYDWLFNVLYPGQKAMRPEDVAVAVRLYCAEAVRSGITTINDNADSAIYPGNIEAAMAVYGEVGVRVVYARMFFDRMDGRIQGYVDALKARSPQVELCSIMEETAVAKDRITALSDQYHGTAGGRISVWPAPAITPAVTVEGMRWAQAFARDRAVMWTLHMAESEHDDRLHWMSPAEYMECYGLLDERLQVAHCVYFDRKDVRLLHRHNVKVASQVVSNAYLGSGVAPVPEMVERGMAVGIGTDDGNCNDSVNMIGDMKFMAHIHRAVHRDADVLTPEKILEMATIDGARSLGMDHEIGSIETGKRADLILLDLRHPQTTPHHHLAATIVFQAYGNEVDTVLIDGNVVMENRRLSFLPPERELAFLEEAQSRATAILQRANMVANPAWRSL | 2 | 1
S301T: mutated TriA variant of SEQ ID NO: 2 (protein, Pseudomonas) MQTLSIQHGTLVTMDQYRRVLGDSWVHVQDGRIVALGVHAESVPPPADRVIDARGKVVLPGFINAHTHVNQILLRGGPSHGRQLYDWLFNVLYPGQKAMRPEDVAVAVRLYCAEAVRSGITTINDNADSAIYPGNIEAAMAVYGEVGVRVVYARMFFDRMDGRIQGYVDALKARSPQVELCSIMEETAVAKDRITALSDQYHGTAGGRISVWPAPAITPAVTVEGMRWAQAFARDRAVMWTLHMAESDHDERLHWMSPAEYMECYGLLDERLQVAHCVYFDRKDVRLLHRHNVKVASQVVTNAYLGSGVAPVPEMVERGMAVGIGTDDGNCNDSVNMIGDMKFMAHIHRAVHRDADVLTPEKILEMATIDGARSLGMDHEIGSIETGKRADLILLDLRHPQTTPHHHLAATIVFQAYGNEVDTVLIDGNVVMENRRLSFLPPERELAFLEEAQSRATAILQRANMVANPAWRSL | 1 | 0
Q298N: mutated TriA variant of SEQ ID NO: 2 (protein, Pseudomonas) MQTLSIQHGTLVTMDQYRRVLGDSWVHVQDGRIVALGVHAESVPPPADRVIDARGKVVLPGFINAHTHVNQILLRGGPSHGRQLYDWLFNVLYPGQKAMRPEDVAVAVRLYCAEAVRSGITTINDNADSAIYPGNIEAAMAVYGEVGVRVVYARMFFDRMDGRIQGYVDALKARSPQVELCSIMEETAVAKDRITALSDQYHGTAGGRISVWPAPAITPAVTVEGMRWAQAFARDRAVMWTLHMAESDHDERLHWMSPAEYMECYGLLDERLQVAHCVYFDRKDVRLLHRHNVKVASNVVSNAYLGSGVAPVPEMVERGMAVGIGTDDGNCNDSVNMIGDMKFMAHIHRAVHRDADVLTPEKILEMATIDGARSLGMDHEIGSIETGKRADLILLDLRHPQTTPHHHLAATIVFQAYGNEVDTVLIDGNVVMENRRLSFLPPERELAFLEEAQSRATAILQRANMVANPAWRSL | 0 | 5
S301A: mutated TriA variant of SEQ ID NO: 2 (protein, Pseudomonas) MQTLSIQHGTLVTMDQYRRVLGDSWVHVQDGRIVALGVHAESVPPPADRVIDARGKVVLPGFINAHTHVNQILLRGGPSHGRQLYDWLFNVLYPGQKAMRPEDVAVAVRLYCAEAVRSGITTINDNADSAIYPGNIEAAMAVYGEVGVRVVYARMFFDRMDGRIQGYVDALKARSPQVELCSIMEETAVAKDRITALSDQYHGTAGGRISVWPAPAITPAVTVEGMRWAQAFARDRAVMWTLHMAESDHDERLHWMSPAEYMECYGLLDERLQVAHCVYFDRKDVRLLHRHNVKVASQVVANAYLGSGVAPVPEMVERGMAVGIGTDDGNCNDSVNMIGDMKFMAHIHRAVHRDADVLTPEKILEMATIDGARSLGMDHEIGSIETGKRADLILLDLRHPQTTPHHHLAATIVFQAYGNEVDTVLIDGNVVMENRRLSFLPPERELAFLEEAQSRATAILQRANMVANPAWRSL | 6 | 0
Q298T: mutated TriA variant of SEQ ID NO: 2 (protein, Pseudomonas) MQTLSIQHGTLVTMDQYRRVLGDSWVHVQDGRIVALGVHAESVPPPADRVIDARGKVVLPGFINAHTHVNQILLRGGPSHGRQLYDWLFNVLYPGQKAMRPEDVAVAVRLYCAEAVRSGITTINDNADSAIYPGNIEAAMAVYGEVGVRVVYARMFFDRMDGRIQGYVDALKARSPQVELCSIMEETAVAKDRITALSDQYHGTAGGRISVWPAPAITPAVTVEGMRWAQAFARDRAVMWTLHMAESDHDERLHWMSPAEYMECYGLLDERLQVAHCVYFDRKDVRLLHRHNVKVASTVVSNAYLGSGVAPVPEMVERGMAVGIGTDDGNCNDSVNMIGDMKFMAHIHRAVHRDADVLTPEKILEMATIDGARSLGMDHEIGSIETGKRADLILLDLRHPQTTPHHHLAATIVFQAYGNEVDTVLIDGNVVMENRRLSFLPPERELAFLEEAQSRATAILQRANMVANPAWRSL | 0 | 63
Q298C: mutated TriA variant of SEQ ID NO: 2 (protein, Pseudomonas) MQTLSIQHGTLVTMDQYRRVLGDSWVHVQDGRIVALGVHAESVPPPADRVIDARGKVVLPGFINAHTHVNQILLRGGPSHGRQLYDWLFNVLYPGQKAMRPEDVAVAVRLYCAEAVRSGITTINDNADSAIYPGNIEAAMAVYGEVGVRVVYARMFFDRMDGRIQGYVDALKARSPQVELCSIMEETAVAKDRITALSDQYHGTAGGRISVWPAPAITPAVTVEGMRWAQAFARDRAVMWTLHMAESDHDERLHWMSPAEYMECYGLLDERLQVAHCVYFDRKDVRLLHRHNVKVASCVVSNAYLGSGVAPVPEMVERGMAVGIGTDDGNCNDSVNMIGDMKFMAHIHRAVHRDADVLTPEKILEMATIDGARSLGMDHEIGSIETGKRADLILLDLRHPQTTPHHHLAATIVFQAYGNEVDTVLIDGNVVMENRRLSFLPPERELAFLEEAQSRATAILQRANMVANPAWRSL | 23 | 100
Q298S: mutated TriA variant of SEQ ID NO: 2 (protein, Pseudomonas) MQTLSIQHGTLVTMDQYRRVLGDSWVHVQDGRIVALGVHAESVPPPADRVIDARGKVVLPGFINAHTHVNQILLRGGPSHGRQLYDWLFNVLYPGQKAMRPEDVAVAVRLYCAEAVRSGITTINDNADSAIYPGNIEAAMAVYGEVGVRVVYARMFFDRMDGRIQGYVDALKARSPQVELCSIMEETAVAKDRITALSDQYHGTAGGRISVWPAPAITPAVTVEGMRWAQAFARDRAVMWTLHMAESDHDERLHWMSPAEYMECYGLLDERLQVAHCVYFDRKDVRLLHRHNVKVASSVVSNAYLGSGVAPVPEMVERGMAVGIGTDDGNCNDSVNMIGDMKFMAHIHRAVHRDADVLTPEKILEMATIDGARSLGMDHEIGSIETGKRADLILLDLRHPQTTPHHHLAATIVFQAYGNEVDTVLIDGNVVMENRRLSFLPPERELAFLEEAQSRATAILQRANMVANPAWRSL | 0 | 83
S301V: mutated TriA variant of SEQ ID NO: 2 (protein, Pseudomonas) MQTLSIQHGTLVTMDQYRRVLGDSWVHVQDGRIVALGVHAESVPPPADRVIDARGKVVLPGFINAHTHVNQILLRGGPSHGRQLYDWLFNVLYPGQKAMRPEDVAVAVRLYCAEAVRSGITTINDNADSAIYPGNIEAAMAVYGEVGVRVVYARMFFDRMDGRIQGYVDALKARSPQVELCSIMEETAVAKDRITALSDQYHGTAGGRISVWPAPAITPAVTVEGMRWAQAFARDRAVMWTLHMAESDHDERLHWMSPAEYMECYGLLDERLQVAHCVYFDRKDVRLLHRHNVKVASQVVVNAYLGSGVAPVPEMVERGMAVGIGTDDGNCNDSVNMIGDMKFMAHIHRAVHRDADVLTPEKILEMATIDGARSLGMDHEIGSIETGKRADLILLDLRHPQTTPHHHLAATIVFQAYGNEVDTVLIDGNVVMENRRLSFLPPERELAFLEEAQSRATAILQRANMVANPAWRSL | 0 | 0
